Test results published in patent KR20160093502A (dated 2016).

B1: SEQ ID NO 42 (scFv)
scFv: EVQLLESGGGLVQPGGSLRLSCAVSGFTFSSYYMSWVRQAPGKGLEWVSLISPGSGSIYYADSVKGRFTISRDNSKNTLYLQMNSLRAEDTAVYYCARTGWLFDYWGQGTLVTVNSGGGGSGGGGSGGGGSQSVLTQPPSASGTPGQRVTISCSGSSSNIGNNAVNWYQQLPGTAPKLLIYSNSHRPSGVPDRFSGSKSGTSASLAISGLRSEDEADYYCGSWDASLNGYVFGGGTKLTVL
B2: SEQ ID NO 28 (scFv)
scFv: EVQLLESGGGLVQPGGSLRLSCAASGFTFSNYAMSWVRQAPGKGLEWVSGIYHGGGNKYYADSVKGRFTISRDNSKNTLYLQMNSLRAEDTAVYYCARTRTLFDYWGQGTLVTVSSGGGGSGGGGSGGGGSQSVLTQPPSASGTPGQRVTISCTGSSSNIGNNAVSWYQQLPGTAPKLLIYANSHRPSGVPDRFSGSKSGTSASLAISGLRSEDEADYYCGTWDASLSGYVFGGGTKLTVL

Target: T1, EPRS (glutamyl-prolyl tRNA synthetase), human 세포에서 원래 발현된 EPRS (Hela cell lysate) (human, UniProt P07814 1-1512)
T1 construct: Endogenous protein in 50 ug HeLa lysate, denatured on a western blot; also called endogenous EPRS in HeLa cell lysate
Assay: western blot on HeLa cell lysate (clones from panning on EPRS WHEP domain antigen)

T1 sequence (P07814 whole entry): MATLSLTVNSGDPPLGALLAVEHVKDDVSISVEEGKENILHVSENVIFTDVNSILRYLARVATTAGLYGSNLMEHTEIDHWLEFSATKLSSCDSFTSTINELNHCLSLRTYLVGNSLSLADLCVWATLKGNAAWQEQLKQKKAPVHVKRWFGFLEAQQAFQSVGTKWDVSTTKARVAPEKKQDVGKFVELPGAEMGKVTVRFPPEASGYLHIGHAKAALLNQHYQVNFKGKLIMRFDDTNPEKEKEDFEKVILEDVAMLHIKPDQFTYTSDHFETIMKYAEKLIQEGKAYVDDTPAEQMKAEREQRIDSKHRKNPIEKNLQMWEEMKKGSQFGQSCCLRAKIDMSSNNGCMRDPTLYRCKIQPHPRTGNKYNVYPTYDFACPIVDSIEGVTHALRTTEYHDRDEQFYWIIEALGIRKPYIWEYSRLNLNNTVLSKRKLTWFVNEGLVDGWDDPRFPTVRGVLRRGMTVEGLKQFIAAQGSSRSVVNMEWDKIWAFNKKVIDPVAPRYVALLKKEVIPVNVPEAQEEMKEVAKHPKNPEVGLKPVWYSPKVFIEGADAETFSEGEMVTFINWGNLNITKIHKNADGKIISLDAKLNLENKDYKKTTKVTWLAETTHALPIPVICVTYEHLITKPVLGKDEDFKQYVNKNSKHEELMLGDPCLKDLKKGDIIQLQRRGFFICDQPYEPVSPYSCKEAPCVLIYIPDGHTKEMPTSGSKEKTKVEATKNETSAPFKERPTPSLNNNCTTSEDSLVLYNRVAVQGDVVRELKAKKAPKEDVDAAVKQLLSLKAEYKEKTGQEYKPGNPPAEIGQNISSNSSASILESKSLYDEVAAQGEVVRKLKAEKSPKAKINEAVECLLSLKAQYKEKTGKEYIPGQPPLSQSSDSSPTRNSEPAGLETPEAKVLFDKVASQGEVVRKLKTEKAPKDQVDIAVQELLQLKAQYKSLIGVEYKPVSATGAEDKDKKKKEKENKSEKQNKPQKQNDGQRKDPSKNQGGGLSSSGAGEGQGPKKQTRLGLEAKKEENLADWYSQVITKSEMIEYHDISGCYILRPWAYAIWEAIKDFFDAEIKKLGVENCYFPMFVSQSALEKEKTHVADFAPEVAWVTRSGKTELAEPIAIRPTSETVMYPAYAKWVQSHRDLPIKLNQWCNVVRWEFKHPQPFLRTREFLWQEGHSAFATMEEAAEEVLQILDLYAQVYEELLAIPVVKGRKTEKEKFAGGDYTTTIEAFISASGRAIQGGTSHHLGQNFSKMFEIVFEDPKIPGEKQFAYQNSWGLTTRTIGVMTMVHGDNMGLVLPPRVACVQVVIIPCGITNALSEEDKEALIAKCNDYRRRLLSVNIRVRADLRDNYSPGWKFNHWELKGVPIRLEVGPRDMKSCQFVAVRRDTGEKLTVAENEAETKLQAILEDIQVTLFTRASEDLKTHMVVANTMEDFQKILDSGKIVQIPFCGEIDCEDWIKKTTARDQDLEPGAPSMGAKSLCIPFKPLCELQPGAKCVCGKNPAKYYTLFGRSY

Binder	binding result
B1	binds
B2	binds
